Reference: the supplement of paper PMC9170038

System: MS2 coat protein
Assay: apparent KD of MS2 coat protein; designed switch direction (-1 OFF switch, 1 ON switch): -1; higher = weaker reporter binding
In short: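 Designed RNA switches with common flanks were transcribed on Illumina chips by stalled E. coli RNA polymerase and titrated with SNAP-549-labelled MS2 coat protein, from 0.7 or 1.5 nM doubling to 3 µM, in Tris-HCl pH 7.5 buffer with KCl, MgCl2, BSA, DTT, tRNA and Tween-20. Steps lasted 0.8–1.5 h (lowest) to 10–20 min (highest). Titrations ran without input, with 200 uM small-molecule ligand, or with an oligonucleotide input. Normalised cluster fluorescence was curve-fitted, and apparent KD is the per-design median over clusters.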

[1] = Eterna round: R95, input ligand: microRNA oligo, concentration not stated
[2] = input ligand: microRNA oligo, concentration not stated

CGGAUGUGAGGAUAUACAUGAGGAUCACCCAUGUGUGCCAGCUAGAUGACUGGCACUUGUAGAAGGCACGUCUG [Mat - Exclusion 3 - Mod of JL D91] (puzzle: Exclusion 3)
apparent KD of MS2 coat protein [1]: 11.3 nM

CGUUGGCGAGGAUAUACAUGAGGAUCACCCAUGUGAGAGAUACUAGUGAGGUCGAUUAGUAGAAGGCGCUGACG [Mat X3R4 m1] (Eterna round: R97, puzzle: Exclusion 3)
apparent KD of MS2 coat protein (input ligand: FMN 200 uM): 949 nM
apparent KD of MS2 coat protein (input ligand: none): 34.9 nM

ACAUGUAAUGCAGGAUAUCUGACACAUGAGGAUCACCCAUGUGACCAGAGGAAUUGCUAUGAGUCGGAGAAGGGUAUGUACAUG [Ex NG2 #54] (Eterna round: R96, puzzle: Exclusion NG 2)
apparent KD of MS2 coat protein (input ligand: FMN 200 uM): 37.7 nM
apparent KD of MS2 coat protein [2]: 20.3 nM
apparent KD of MS2 coat protein (input ligand: none): 27.1 nM

AGUAGUUCAGGAUAUGAUGUUGAGUACAUGAGGAUCACCCAUGUAGGUCCUGGAUUUGCAUCAGAAGGGAAUAACU [JR_Ex5_Sub084] (Eterna round: R97, puzzle: Exclusion 5)
apparent KD of MS2 coat protein (input ligand: FMN 200 uM): 59 nM
apparent KD of MS2 coat protein (input ligand: none): 26.7 nM

GGUGCGUAUGUGAGGAUAUGCUGGUCCUUGGAUCGGCAGAAGGUACAUGAGGAUCACCCAUGUGGUGUCGUUCC [salish99_Bmod_ex4_102] (puzzle: Brourd's mod of Exclusion 4)
apparent KD of MS2 coat protein [1]: 87 nM

UACAUGAGGAUCACCCAUGUUUUGUCGUGUAUGGUAUUUAUCUAGGAUAUCAAUUGAGUUAUUUAUGAGAAGGAGAAUAUUAAU [JMF's solution 59] (Eterna round: R96, puzzle: Exclusion NG 3)
apparent KD of MS2 coat protein [2]: 31.6 nM

UCGCAGUUAGGAUAUACAUGAGGAUCACCCAUGUGGCUCCGGACCGGCAACGAAUCACGUAGAAGGGACUGCAG [Eternabot (Original) Solution 24] (Eterna round: R97, puzzle: Exclusion 3)
apparent KD of MS2 coat protein (input ligand: FMN 200 uM): 20.4 nM
apparent KD of MS2 coat protein (input ligand: none): 16.8 nM

UGCUGACAAGGAUAUACAUGAGGAUCACCCAUGUUGGUUCAGCGACGAUAGUCGCAAUGUAGAAGGUGUCAGCA [E3/9-C1] (Eterna round: R97, puzzle: Exclusion 3)
apparent KD of MS2 coat protein (input ligand: FMN 200 uM): 135 nM
apparent KD of MS2 coat protein (input ligand: none): 236 nM

GUUUGAUGAGGAUAUCGAGGUUAGUACAUGAGGAUCACCCAUGUUAUCCAGGUGUCGGUUCGAGAAGGUAUUGGAC [LRO-Ex5-15] (puzzle: Exclusion 5)
apparent KD of MS2 coat protein [1]: 18.6 nM

AACGACGGAGGAUAUACACCCUGGGACUCAUUAUCCCUUAGACAUGAGGAUCACCCAUGUAGAAGGCCGAACAC [EX2 B.3] (Eterna round: R97, puzzle: Exclusion 2)
apparent KD of MS2 coat protein (input ligand: FMN 200 uM): 174 nM
apparent KD of MS2 coat protein (input ligand: none): 29.8 nM

UUAAAUCAUGUAGGAUAUGCGUGGGAAAACUAUGCAGAAGGACAUGAGGAUCACCCAUGUGCUUCCGUCUGAGAACAGACGGUA [Mat - Exclusion NG 1 - Mod of JL - D15] (Eterna round: R96, puzzle: Exclusion NG 1)
apparent KD of MS2 coat protein (input ligand: FMN 200 uM): 226 nM
apparent KD of MS2 coat protein [2]: 76.1 nM
apparent KD of MS2 coat protein (input ligand: none): 87.8 nM

CGACUAAACGUGAGGAUAUGCGGUGCCAGAACAUUGCAGAAGGCACAUGAGGAUCACCCAUGUGUGGGAGAAGA [Eternabot (L1) Solution 43] (Eterna round: R97, puzzle: Brourd's mod of Exclusion 4)
apparent KD of MS2 coat protein (input ligand: FMN 200 uM): 241 nM
apparent KD of MS2 coat protein (input ligand: none): 103 nM

UUAUAAAGUGUGAGGAUAUGCUGGUCCUUGGAUCAGCAGAAGGCACAUGAGGAUCACCCAUGUAAUAUAUUUUU [JL bmx4 3.08] (puzzle: Brourd's mod of Exclusion 4)
apparent KD of MS2 coat protein [1]: 68.2 nM

GGUUGUUUUUUCCGUUCUUACAUGAGGAUCACCCAUGUUUCUUGUCGUGCUCGCGUUGCUCGUCUGUCUGUCUGUUG [salish99_TOv1_r3_073] (puzzle: Sensor v3, turn-off variant 1)
apparent KD of MS2 coat protein (Eterna round: R95, input ligand: FMN 200 uM): 48.5 nM
apparent KD of MS2 coat protein [1]: 34.3 nM
apparent KD of MS2 coat protein (Eterna round: R95, input ligand: none): 56 nM

UUAUUCAGAGGAUAUGCGCAUAGAUAAGACUUUUUUUUUUAACAUGAGGAUCACCCAUGUAGAAGGCUGUAAUU [Ex2 #55] (Eterna round: R97, puzzle: Exclusion 2)
apparent KD of MS2 coat protein (input ligand: FMN 200 uM): 18.1 nM
apparent KD of MS2 coat protein (input ligand: none): 21 nM
